Consider two molecules from patent publication US20150329863, “APTAMERS INHIBITING THE ENZYMATIC ACTIVITY OF TYROSINASE” (L V M H RECHERCHE, published 2015).

Data set [1] addresses T1, tyrosinase (endogenous, normal human melanocytes) (Homo sapiens) (UniProt P14679).
T1 sequence: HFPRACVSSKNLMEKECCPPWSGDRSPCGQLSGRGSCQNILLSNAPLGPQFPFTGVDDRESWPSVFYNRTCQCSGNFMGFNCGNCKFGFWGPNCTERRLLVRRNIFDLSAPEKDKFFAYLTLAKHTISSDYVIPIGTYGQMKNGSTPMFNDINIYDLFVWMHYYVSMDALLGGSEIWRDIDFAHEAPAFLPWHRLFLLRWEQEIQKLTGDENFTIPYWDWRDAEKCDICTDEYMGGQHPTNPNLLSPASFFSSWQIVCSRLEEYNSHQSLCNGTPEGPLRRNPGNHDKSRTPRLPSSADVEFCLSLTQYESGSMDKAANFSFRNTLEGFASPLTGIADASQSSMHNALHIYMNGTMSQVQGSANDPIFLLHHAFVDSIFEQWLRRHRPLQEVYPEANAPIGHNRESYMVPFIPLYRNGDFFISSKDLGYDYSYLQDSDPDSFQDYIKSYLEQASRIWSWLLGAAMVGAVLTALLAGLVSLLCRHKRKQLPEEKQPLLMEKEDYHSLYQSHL
Nature of the data set: cell_activity. The settings on record: 4-200 nM, no dose dependence; 72 h melanocyte treatment, L-DOPA oxidation.

A further data set deals with T2, tyrosinase (TYR) (Homo sapiens, UniProt P14679 P14679:19-529).
T2 sequence: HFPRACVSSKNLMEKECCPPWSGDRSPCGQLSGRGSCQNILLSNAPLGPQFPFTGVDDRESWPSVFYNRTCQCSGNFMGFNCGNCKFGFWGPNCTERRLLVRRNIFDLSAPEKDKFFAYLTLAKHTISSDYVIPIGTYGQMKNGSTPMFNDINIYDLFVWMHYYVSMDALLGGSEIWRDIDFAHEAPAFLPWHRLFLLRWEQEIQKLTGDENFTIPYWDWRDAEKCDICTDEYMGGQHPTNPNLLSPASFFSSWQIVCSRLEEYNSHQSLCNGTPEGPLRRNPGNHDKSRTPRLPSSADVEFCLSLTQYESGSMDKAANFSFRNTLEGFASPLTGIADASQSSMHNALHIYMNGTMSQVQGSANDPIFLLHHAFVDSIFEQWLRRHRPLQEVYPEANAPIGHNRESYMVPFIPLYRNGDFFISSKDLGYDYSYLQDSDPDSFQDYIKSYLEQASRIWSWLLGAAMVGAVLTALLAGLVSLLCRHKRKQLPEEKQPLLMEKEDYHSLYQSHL
The data set can be described thus: SPR; 16 RU at 500 nM and 42 RU at 1 uM tyrosinase on about 1000 RU immobilized biotinylated aptamer; PBS-Mg buffer, 23 C. The following applies: tags: N-terminal GST tag, Abnova; label: biotin (SPR); predicted long imperfect stem-loop with 5-nt internal loop and 5-nt apical loop. How it is done:
All the experiments were carried out on a Biacore 3000 device with PBS—Mg buffer at 23° C. The biotinylated oligonucleotides—heated at 75° C. for 5 minutes, placed on ice for 5 minutes and then placed at room temperature for at least 5 minutes—were immobilized on streptavidin-coated sensor chips (XanTec bioanalytics). The oligonucleotides were injected at 100 nM for 4 minutes at 5 μl/min to reach 800 to 1000 RU.
Tyrosinase and the GST-His control were injected at 500 nM and 1 μM at a rate of 20 μl/min at 23° C. The same injections were carried out with PBS—Mg buffer and tyrosinase storage buffer to subtract the effects of the buffer from the specific sensorgram.
The binding of this candidate, T10.1, and of truncated versions derived from the full-length candidate (Table 1) was investigated by surface plasmon resonance (SPR). About 1000 resonance units (RU) of biotinylated candidate T10.1 were immobilized and tyrosinase was injected at 500 nM or 1 μM. Signals of 16 and 42 RU were detected for 500 nM and 1 μM, respectively, indicating interaction between candidate T10.1 and tyrosinase (FIG. 2).

Regarding “GCCTGTTGTGAGCCTCCTGTCGAANNNNNNNNNNNNNNNNNNNNNNNNNNNNNNTTGAGCGTTTATTCTTGTCTCCC [round 10 population]”, the activity in data set [1] was greater than 75 % inhibition.

B1: T10.1 (ssDNA)
DNA: GCCTGTTGTGAGCCTCCTGTCGAACGCAATGGGCGCAGATTGGAAGGCCTAGCATTGAGCGTTTATTCTTGTCTCCC
As for B1, the binding result with tyrosinase (TYR) was “binds”.
